Earlier results as cited in PMC5428663, “Identification of small molecule inhibitors of Interleukin-18” (Scientific Reports, 2017).

Biological target: hIL-18
Settings: read-out: affinity for hIL-18

B1: hIL-18BP (protein, UniProt O95998 31-194, looked up)
Interleukin-18-binding protein: TPVSQTTTAATASVRSTKDPCPSQPPVFPAAKQCPALEVTWPEVEVPLNGTLSLSCVACSRFPNFSILYWLGNGSFIEHLPGRLWEGSTSRERGSTGTQLCKALVLEQLTPALHSTNFSCVLVDPEQVVQRHVVLAQLWAGLRATLPPTQEALPSSHSSPQQQG
Kd: 0.4 nM
